B1: D1min W293A (peptide)
peptide: APQAMLPLLLGLY
modifications: N-terminal acetyl, C-terminal amide (Ac-APQAMLPLLLGLY-NH2, printed for the NMR samples)

The target of the experiment is BKV serotype 1 VP1 (30-297) pentamer (BK polyomavirus). The experiment is described as follows: AlphaScreen or HTRF. In general terms: Bead proximity is the source of the signal in Alpha formats.
For the molecule APQWMLPALLGLY [D1min L297A], the binding result is on record as “binds”.

APQWMLPLALGLY [D1min L298A]: the binding result is “binds”.

Regarding B1, the binding result is reported as “binds”.

For the origin of these results see article doi:10.1101/720318 (bioRxiv, 2019).
